The test system of data set [1] is 6His-ArsR1 (Pseudomonas putida KT2440). Briefly: EMSA. Particulars: no arsenite; 'gross KD'; EMSA: TRRG buffer (20 mM Tris-HCl pH 7.5, 50 mM KCl, 2 mM beta-mercaptoethanol, 10% glycerol), BSA, 25 ug/ml herring sperm DNA, 0.3 nM probe, 20 min 30 C …. A general note: In EMSA bound probe runs differently from free probe, usually more slowly.
The subject of data set [2] is 6His-ArsR2 (Pseudomonas putida KT2440). Briefly: EMSA. Particulars: no arsenite; 'gross KD'; EMSA: TRRG buffer (20 mM Tris-HCl pH 7.5, 50 mM KCl, 2 mM beta-mercaptoethanol, 10% glycerol), BSA, 25 ug/ml herring sperm DNA, 0.3 nM probe, 20 min 30 C ….
Data set [3] concerns the molecule itself. Nature of the data set: AUC; sedimentation velocity, 20°C, 48,000 rpm, 20 mM NaH2PO4, 100 mM KCl, 2 mM β-mercaptoethanol, pH 8.0, with or without 2 mM arsenite; data shown for 20 μM protein (methods: 42 μM 6His-ArsR1, 36 μM 6His-ArsR2); s = 2.1 ± 0.1 S.

Pars1 probe: the Kd (usually the concentration at which binding is half-saturated) in data set [1] was 0.2 µM. In data set [2], Pars2 probe showed a Kd of 0.5 µM.

B1: 6His-ArsR2 (natural protein, Pseudomonas putida KT2440, UniProt Q88JD1 1-115, looked up)
chain: MITPPDVFKSLSDETRARATLLIASLGELCVCELMCALNDSQPKISRHLAQLRSNGMLLDRRQGQWVYYRLNPELPSWVHEMLQVTLQANSQWLADNALRLKNMDGRPVRDSVCC
notes: ArsR2, As(III)-responsive transcriptional repressor of the ars2 operon (SmtB/ArsR family), Pseudomonas putida KT2440; protein of 115 amino acids; 364-bp PCR fragment that includes the arsR2 gene cloned BamHI/HindIII into pQE32; Theoretical monomer mass with tag 14,519 Da; source: E. coli M15 (pREP4, pQE32-ArsR2), purified (Ni-NTA agarose, dialysed)
As for B1, the stoichiometry N (usually a count of units in the complex or per binding partner) in data set [3] is 2.

B2: 6His-ArsR1 (natural protein, Pseudomonas putida KT2440, UniProt Q88LK1 11-128, looked up)
chain: MREILTPPIVFKCLADDTRARMTLLIAREGELCVCELTHALELSQPKISRHLAQLREAGILMDRRKGQWVYYRLHPEVPQWVDAMLKGVVDANQEWLSPDALRLAEMGERPQSPVACA
notes: ArsR1, As(III)-responsive transcriptional repressor of the ars1 operon (SmtB/ArsR family), Pseudomonas putida KT2440; protein of 118 amino acids; 373-bp PCR fragment that includes the arsR1 gene cloned BamHI/HindIII into pQE32; Theoretical monomer mass with tag 14,869 Da; source: E. coli M15 (pREP4, pQE32-ArsR1), purified (Ni-NTA agarose, dialysed)
For the molecule B2, in data set [3], the “stoichiometry N” value was 2.
